From paper PMC6517402 (Scientific Reports, 2019)

Biological target: the molecule itself
Test: crystal structure; X-ray, 1.85 Å, SAD phasing with SeMet protein, then molecular replacement into the wild-type crystal; three molecules in the asymmetric unit

B1: ORF212 tailspike protein (TSP3) of E. coli O157:H7 phage CBA120 (enzyme, UniProt G3M191 1-627, looked up)
chain: MISQFNQPRGSTSIEVNKQSIARNFGVKEDEVIYFTAGIDLSGFKVIYDESTQRAYSLPFGIVSGTTAISLDERAILTHSAGSVDLGELAVSREEYVTLPGSFNFGHTINVKNELLVHDDKKYRWDGSLPKVVAAGSTPDSSGGVGLGAWLSVGDAALRAELNTKVSDGTFPATIKYKYGLPSVIDGAIYRTVQDKLDDFVFLEDFGGKDDAGSTDNSIAFRKAFASGARKIRLRGSGVYGMATRDIELPAKYEIIGNAKNPEIKYLGTDTSFTMFTLTGSGPASNQWKQGGMFRDLIISSDVKINWMLGRHVQNLDYDRVFFYNSATVLNNYHYVNFTRCERWGSAFIGRADLNTIQFISESPKFHLCFSSGSPIDVWDTADLAITKCTMFAGDYAVRTRVTQKQVTAPDLFAGYPVLITCSVFDAVRGHAWDLEGSVYSTITGNLVSAGRDTNSHGAYIKGGRSLSLTGNVFTYCGNYGLVLEDVQQSGFVGNVFNGNKTGGLGTLACKDLSIVGGSMGTTYVRGGYYTQPVGYSDISSNSTGILLSGVAFDEALTTKVYLDTSITTRNKVINCSGVPDTIARGSTANRPANPQASYQYYDTTLGIPIWWNSVSGTWKNAAGADV
notes: also called CBA120 TSP3; wild-type TSP3
- stoichiometry N: 3
